The labels stand for the following.
T1: β-catenin (UniProt P35222 134-665, limits assumed, biotinylated in the SPR and plate assays)
T1 sequence (looked up): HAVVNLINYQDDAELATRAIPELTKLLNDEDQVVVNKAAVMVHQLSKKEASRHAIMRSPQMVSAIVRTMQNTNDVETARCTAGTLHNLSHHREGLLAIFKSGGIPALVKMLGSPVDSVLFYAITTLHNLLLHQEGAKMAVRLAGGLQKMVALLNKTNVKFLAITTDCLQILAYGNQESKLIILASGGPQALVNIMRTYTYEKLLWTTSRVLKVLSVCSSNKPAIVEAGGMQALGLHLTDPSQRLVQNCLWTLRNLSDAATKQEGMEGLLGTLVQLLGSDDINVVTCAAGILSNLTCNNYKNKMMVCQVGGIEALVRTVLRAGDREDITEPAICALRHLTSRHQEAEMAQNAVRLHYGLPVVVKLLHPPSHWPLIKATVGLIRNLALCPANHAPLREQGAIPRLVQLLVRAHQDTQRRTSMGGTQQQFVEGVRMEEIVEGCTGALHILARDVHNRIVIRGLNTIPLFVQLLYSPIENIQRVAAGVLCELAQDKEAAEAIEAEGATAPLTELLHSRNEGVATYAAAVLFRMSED

B1: SEQ ID NO: 445 (peptide)
peptide: AQKILDEHGQRVW
HELM: PEPTIDE1{[ac].[meA].Q.K.I.L.D.E.H.[O=C([C@@H](N[*:1])C1CCCCC1)[*:2]].Q.R.V.W.[am]}$PEPTIDE1,PEPTIDE1,4:R3-8:R3$$$V2.0
SMILES: CC[C@H](C)[C@@H]1NC(=O)[C@@H](NC(=O)[C@H](CCC(N)=O)NC(=O)[C@H](C)N(C)C(C)=O)CCCCNC(=O)CC[C@@H](C(=O)N[C@@H](Cc2c[nH]cn2)C(=O)N[C@H](C(=O)N[C@@H](CCC(N)=O)C(=O)N[C@@H](CCCNC(=N)N)C(=O)N[C@H](C(=O)N[C@@H](Cc2c[nH]c3ccccc23)C(N)=O)C(C)C)C2CCCCC2)NC(=O)[C@H](CC(=O)O)NC(=O)[C@H](CC(C)C)NC1=O
B2: SEQ ID NO: 442 (peptide)
peptide: WXQKILDEHGQRVWG
HELM: PEPTIDE1{[ac].W.[O=C([C@@H]1CCCCN1[*:1])[*:2]].Q.K.I.L.D.E.H.[O=C([C@@H](N[*:1])C1CCCCC1)[*:2]].Q.R.V.W.G.[am]}$PEPTIDE1,PEPTIDE1,5:R3-9:R3$$$V2.0
SMILES: CC[C@H](C)[C@@H]1NC(=O)[C@@H](NC(=O)[C@H](CCC(N)=O)NC(=O)[C@@H]2CCCCN2C(=O)[C@H](Cc2c[nH]c3ccccc23)NC(C)=O)CCCCNC(=O)CC[C@@H](C(=O)N[C@@H](Cc2c[nH]cn2)C(=O)N[C@H](C(=O)N[C@@H](CCC(N)=O)C(=O)N[C@@H](CCCNC(=N)N)C(=O)N[C@H](C(=O)N[C@@H](Cc2c[nH]c3ccccc23)C(=O)NCC(N)=O)C(C)C)C2CCCCC2)NC(=O)[C@H](CC(=O)O)NC(=O)[C@H](CC(C)C)NC1=O
B3: SEQ ID NO: 447 (peptide)
peptide: WAQKILDEHGQRVW
HELM: PEPTIDE1{[CCCCCCCCCCCC(=O)[*:2]].W.[meA].Q.K.I.L.D.E.H.[O=C([C@@H](N[*:1])C1CCCCC1)[*:2]].Q.R.V.W.[am]}$PEPTIDE1,PEPTIDE1,5:R3-9:R3$$$V2.0
SMILES: CCCCCCCCCCCC(=O)N[C@@H](Cc1c[nH]c2ccccc12)C(=O)N(C)[C@@H](C)C(=O)N[C@@H](CCC(N)=O)C(=O)N[C@H]1CCCCNC(=O)CC[C@@H](C(=O)N[C@@H](Cc2c[nH]cn2)C(=O)N[C@H](C(=O)N[C@@H](CCC(N)=O)C(=O)N[C@@H](CCCNC(=N)N)C(=O)N[C@H](C(=O)N[C@@H](Cc2c[nH]c3ccccc23)C(N)=O)C(C)C)C2CCCCC2)NC(=O)[C@H](CC(=O)O)NC(=O)[C@H](CC(C)C)NC(=O)[C@H]([C@@H](C)CC)NC1=O
B4: SEQ ID NO: 461 (peptide)
peptide: Lauroyl-W[NMeA]QSILDKH[Chg]QDVW-NH2
modifications: lactam 8-12; not fully specified; printed as Lauroyl-NH-W-NMeA-QSILDK*H-Chg-QD*VW-NH2
B5: SEQ ID NO: 443 (peptide)
peptide: WXQKILDEHGQRVWG
HELM: PEPTIDE1{[ac].W.[Aib].Q.K.I.L.D.E.H.[O=C([C@@H](N[*:1])C1CCCCC1)[*:2]].Q.R.V.W.G.[am]}$PEPTIDE1,PEPTIDE1,5:R3-9:R3$$$V2.0
SMILES: CC[C@H](C)[C@@H]1NC(=O)[C@@H](NC(=O)[C@H](CCC(N)=O)NC(=O)C(C)(C)NC(=O)[C@H](Cc2c[nH]c3ccccc23)NC(C)=O)CCCCNC(=O)CC[C@@H](C(=O)N[C@@H](Cc2c[nH]cn2)C(=O)N[C@H](C(=O)N[C@@H](CCC(N)=O)C(=O)N[C@@H](CCCNC(=N)N)C(=O)N[C@H](C(=O)N[C@@H](Cc2c[nH]c3ccccc23)C(=O)NCC(N)=O)C(C)C)C2CCCCC2)NC(=O)[C@H](CC(=O)O)NC(=O)[C@H](CC(C)C)NC1=O
B6: SEQ ID NO: 448 (peptide)
peptide: AQKILDEHGQRVWR
HELM: PEPTIDE1{[ac].[meA].Q.K.I.L.D.E.H.[O=C([C@@H](N[*:1])C1CCCCC1)[*:2]].Q.R.V.W.R.[am]}$PEPTIDE1,PEPTIDE1,4:R3-8:R3$$$V2.0
SMILES: CC[C@H](C)[C@@H]1NC(=O)[C@@H](NC(=O)[C@H](CCC(N)=O)NC(=O)[C@H](C)N(C)C(C)=O)CCCCNC(=O)CC[C@@H](C(=O)N[C@@H](Cc2c[nH]cn2)C(=O)N[C@H](C(=O)N[C@@H](CCC(N)=O)C(=O)N[C@@H](CCCNC(=N)N)C(=O)N[C@H](C(=O)N[C@@H](Cc2c[nH]c3ccccc23)C(=O)N[C@@H](CCCNC(=N)N)C(N)=O)C(C)C)C2CCCCC2)NC(=O)[C@H](CC(=O)O)NC(=O)[C@H](CC(C)C)NC1=O
B7: SEQ ID NO: 452 (peptide)
peptide: WAQKILNDHGQAV
HELM: PEPTIDE1{[ac].W.[meA].Q.K.I.L.N.D.H.[O=C([C@@H](N[*:1])C1CCCCC1)[*:2]].Q.A.V.[am]}$PEPTIDE1,PEPTIDE1,5:R3-9:R3$$$V2.0
SMILES: CC[C@H](C)[C@@H]1NC(=O)[C@@H](NC(=O)[C@H](CCC(N)=O)NC(=O)[C@H](C)N(C)C(=O)[C@H](Cc2c[nH]c3ccccc23)NC(C)=O)CCCCNC(=O)C[C@@H](C(=O)N[C@@H](Cc2c[nH]cn2)C(=O)N[C@H](C(=O)N[C@@H](CCC(N)=O)C(=O)N[C@@H](C)C(=O)N[C@H](C(N)=O)C(C)C)C2CCCCC2)NC(=O)[C@H](CC(N)=O)NC(=O)[C@H](CC(C)C)NC1=O
B8: SEQ ID NO: 440 (peptide)
peptide: QKILDEHGQRVWG
HELM: PEPTIDE1{[ac].Q.K.I.L.D.E.H.[O=C([C@@H](N[*:1])C1CCCCC1)[*:2]].Q.R.V.W.G.[am]}$PEPTIDE1,PEPTIDE1,3:R3-7:R3$$$V2.0
SMILES: CC[C@H](C)[C@@H]1NC(=O)[C@@H](NC(=O)[C@H](CCC(N)=O)NC(C)=O)CCCCNC(=O)CC[C@@H](C(=O)N[C@@H](Cc2c[nH]cn2)C(=O)N[C@H](C(=O)N[C@@H](CCC(N)=O)C(=O)N[C@@H](CCCNC(=N)N)C(=O)N[C@H](C(=O)N[C@@H](Cc2c[nH]c3ccccc23)C(=O)NCC(N)=O)C(C)C)C2CCCCC2)NC(=O)[C@H](CC(=O)O)NC(=O)[C@H](CC(C)C)NC1=O
B9: SEQ ID NO: 441 (peptide)
peptide: WAQKILDEHGQRVWG
HELM: PEPTIDE1{[ac].W.A.Q.K.I.L.D.E.H.[O=C([C@@H](N[*:1])C1CCCCC1)[*:2]].Q.R.V.W.G.[am]}$PEPTIDE1,PEPTIDE1,5:R3-9:R3$$$V2.0
SMILES: CC[C@H](C)[C@@H]1NC(=O)[C@@H](NC(=O)[C@H](CCC(N)=O)NC(=O)[C@H](C)NC(=O)[C@H](Cc2c[nH]c3ccccc23)NC(C)=O)CCCCNC(=O)CC[C@@H](C(=O)N[C@@H](Cc2c[nH]cn2)C(=O)N[C@H](C(=O)N[C@@H](CCC(N)=O)C(=O)N[C@@H](CCCNC(=N)N)C(=O)N[C@H](C(=O)N[C@@H](Cc2c[nH]c3ccccc23)C(=O)NCC(N)=O)C(C)C)C2CCCCC2)NC(=O)[C@H](CC(=O)O)NC(=O)[C@H](CC(C)C)NC1=O

“And” between values parts separate entries of the source, which are not always exact repeats. Equal values may be shown once. Bridges are numbered along the chain shown (N, C = ends). [ ]: non-standard residue; d: D form. The star is where a group is joined. NMeW = CN[C@@H](Cc1c[nH]c2ccccc12)C(=O)O; Chg = N[C@H](C(=O)O)C1CCCCC1; Lauroyl = CCCCCCCCCCCC(=O)*; αMeS = C[C@](N)(CO)C(=O)O; NMeA = CN[C@@H](C)C(=O)O

The first assay deals with T1, β-catenin. Description: cell-based or functional assay.
Turning to B1, the “Wnt Reporter EC50” value was > 22.5 µM and ≤ 30 µM.

B2: the “Wnt Reporter EC50” value is no more than 7.5 µM.

In the case of WPQSILDKHGQDVW (not fully specified; Lauroyl-NH-WPQSILDK*H-Chg-QD*VW-NH2) [SEQ ID NO: 463], the “Wnt Reporter EC50” value is no more than 7.5 µM.

Regarding WPQSILDEHGQKVWG (not fully specified; Lauroyl-NH-WPQSILDE*H-Chg-QK*VWG-NH2) [SEQ ID NO: 473], the “Wnt Reporter EC50” value is no more than 7.5 µM.

Turning to Lauroyl-W[NMeA]QKILNDH[Chg]QAVW-NH2 (lactam 4-8) [SEQ ID NO: 459], the “Wnt Reporter EC50” value was no more than 7.5 µM.

B3: the “Wnt Reporter EC50” value was no more than 7.5 µM.

With H-MSRMWYLISFWG-OH [SEQ ID NO: 66], the “Wnt Reporter EC50” value is > 7.5 µM and ≤ 15 µM.

As to H-MSRMWFLISFRG-OH [SEQ ID NO: 69], the “Wnt Reporter EC50” value is greater than 30 µM.

Take B4: the “Wnt Reporter EC50” value is no more than 7.5 µM.

For the molecule B5, the “Wnt Reporter EC50” value is > 7.5 µM and ≤ 15 µM.

Consider B6, for which the “Wnt Reporter EC50” value is greater than 30 µM.

For B7, the “Wnt Reporter EC50” value is > 15 µM and ≤ 22.5 µM.

On to H-W[NMeW]E[αMeS]ILDEHVQRVWG-NH2 [SEQ ID NO: 40], for which the “Wnt Reporter EC50” value is greater than 30 µM.

For the molecule B8, the “Wnt Reporter EC50” value is > 22.5 µM and ≤ 30 µM.

As for B9, the “Wnt Reporter EC50” value is greater than 30 µM.

Consider Lauroyl-W[NMeA]QKILDEH[Chg]EDVWK-NH2 (lactam 11-15, 4-8 (inferred)) [SEQ ID NO: 465], for which the “Wnt Reporter EC50” value was no more than 7.5 µM.

Consider EDPQKILDEHLQRVLK (not fully specified; H23C11C(O)NH-EDPQK*ILDE*HLQRVLK-NH2) [SEQ ID NO: 444], for which the “Wnt Reporter EC50” value is greater than 30 µM.

A further assay concerns the target T1, β-catenin. Description: competitive FP. In outline: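 Competitive fluorescence polarization with inhibitor peptide serially diluted from 10 nM to 30 uM; polarization read at 470 nm excitation, 520 nm emission. Experiments performed three times.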
What is called Kd is the constant that tells how readily two partners part at equilibrium. A higher Kd goes with lower affinity. The molecule B1 returned a Kd of no more than 0.4 µM.

B2 registered a Kd of no more than 0.4 µM.

The molecule WPQSILDKHGQDVW (not fully specified; Lauroyl-NH-WPQSILDK*H-Chg-QD*VW-NH2) [SEQ ID NO: 463] registered a Kd of no more than 0.4 µM.

In turn, WPQSILDEHGQKVWG (not fully specified; Lauroyl-NH-WPQSILDE*H-Chg-QK*VWG-NH2) [SEQ ID NO: 473] showed a Kd of no more than 0.4 µM.

With Lauroyl-W[NMeA]QKILNDH[Chg]QAVW-NH2 (lactam 4-8) [SEQ ID NO: 459], the Kd is no more than 0.4 µM.

B3 gave a Kd of no more than 0.4 µM.

For H-MSRMWYLISFWG-OH [SEQ ID NO: 66], the Kd is > 10 µM and ≤ 30 µM.

H-MSRMWFLISFRG-OH [SEQ ID NO: 69] showed a Kd of no more than 0.4 µM.

Turning to B4, the Kd is no more than 0.4 µM.

As for B5, the Kd is no more than 0.4 µM.

In turn, B6 gave a Kd of no more than 0.4 µM.

As for B7, the Kd was > 0.4 µM and ≤ 1 µM.

Consider H-W[NMeW]E[αMeS]ILDEHVQRVWG-NH2 [SEQ ID NO: 40], for which the Kd is no more than 0.4 µM.

B8 registered a Kd of no more than 0.4 µM.

The molecule B9 registered a Kd of no more than 0.4 µM.

As for Lauroyl-W[NMeA]QKILDEH[Chg]EDVWK-NH2 (lactam 11-15, 4-8 (inferred)) [SEQ ID NO: 465], the dissociation constant Kd is > 0.4 µM and ≤ 1 µM.

The molecule EDPQKILDEHLQRVLK (not fully specified; H23C11C(O)NH-EDPQK*ILDE*HLQRVLK-NH2) [SEQ ID NO: 444] returned a Kd of no more than 0.4 µM.

Source of the values: patent US20260098059A1 (ENDOMET BIOSCIENCES, published 2026).
